Data published in IntAct's records for PubMed 22270917.

B1: Focal adhesion kinase 1 (Homo sapiens), Q05397 (parent)
chain: MAAAYLDPNLNHTPNSSTKTHLGTGMERSPGAMERVLKVFHYFESNSEPTTWASIIRHGDATDVRGIIQKIVDSHKVKHVACYGFRLSHLRSEEVHWLHVDMGVSSVREKYELAHPPEEWKYELRIRYLPKGFLNQFTEDKPTLNFFYQQVKSDYMLEIADQVDQEIALKLGCLEIRRSYWEMRGNALEKKSNYEVLEKDVGLKRFFPKSLLDSVKAKTLRKLIQQTFRQFANLNREESILKFFEILSPVYRFDKECFKCALGSSWIISVELAIGPEEGISYLTDKGCNPTHLADFTQVQTIQYSNSEDKDRKGMLQLKIAGAPEPLTVTAPSLTIAENMADLIDGYCRLVNGTSQSFIIRPQKEGERALPSIPKLANSEKQGMRTHAVSVSETDDYAEIIDEEDTYTMPSTRDYEIQRERIELGRCIGEGQFGDVHQGIYMSPENPALAVAIKTCKNCTSDSVREKFLQEALTMRQFDHPHIVKLIGVITENPVWIIMELCTLGELRSFLQVRKYSLDLASLILYAYQLSTALAYLESKRFVHRDIAARNVLVSSNDCVKLGDFGLSRYMEDSTYYKASKGKLPIKWMAPESINFRRFTSASDVWMFGVCMWEILMHGVKPFQGVKNNDVIGRIENGERLPMPPNCPPTLYSLMTKCWAYDPSRRPRFTELKAQLSTILEEEKAQQEERMRMESRRQATVSWDSGGSDEAPPKPSRPGYPSPRSSEGFYPSPQHMVQTNHYQVSGYPGSHGITAMAGSIYPGQASLLDQTDSWNHRPQEIAMWQPNVEDSTVLDLRGIGQVLPTHLMEERLIRQQQEMEEDQRWLEKEERFLKPDVRLSRGSIDREDGSLQGPIGNQHIYQPVGKPDPAAPPKKPPRPGAPGHLGSLASLSSPADSYNEGVKLQPQEISPPPTANLDRSNDKVYENVTGLVKAVIEMSSKIQPAPPEEYVPMVKEVGLALRTLLATVDETIPLLPASTHREIEMAQKLLNSDLGELINKMKLAQQYVMTSLQQEYKKQMLTAAHALAVDAKNLLDVIDQARLKMLGQTRPH

Variants of: B1
Conditions: with tln1_chick TLN1, P54939
Sequence of tln1_chick TLN1, P54939 (P54939 whole entry): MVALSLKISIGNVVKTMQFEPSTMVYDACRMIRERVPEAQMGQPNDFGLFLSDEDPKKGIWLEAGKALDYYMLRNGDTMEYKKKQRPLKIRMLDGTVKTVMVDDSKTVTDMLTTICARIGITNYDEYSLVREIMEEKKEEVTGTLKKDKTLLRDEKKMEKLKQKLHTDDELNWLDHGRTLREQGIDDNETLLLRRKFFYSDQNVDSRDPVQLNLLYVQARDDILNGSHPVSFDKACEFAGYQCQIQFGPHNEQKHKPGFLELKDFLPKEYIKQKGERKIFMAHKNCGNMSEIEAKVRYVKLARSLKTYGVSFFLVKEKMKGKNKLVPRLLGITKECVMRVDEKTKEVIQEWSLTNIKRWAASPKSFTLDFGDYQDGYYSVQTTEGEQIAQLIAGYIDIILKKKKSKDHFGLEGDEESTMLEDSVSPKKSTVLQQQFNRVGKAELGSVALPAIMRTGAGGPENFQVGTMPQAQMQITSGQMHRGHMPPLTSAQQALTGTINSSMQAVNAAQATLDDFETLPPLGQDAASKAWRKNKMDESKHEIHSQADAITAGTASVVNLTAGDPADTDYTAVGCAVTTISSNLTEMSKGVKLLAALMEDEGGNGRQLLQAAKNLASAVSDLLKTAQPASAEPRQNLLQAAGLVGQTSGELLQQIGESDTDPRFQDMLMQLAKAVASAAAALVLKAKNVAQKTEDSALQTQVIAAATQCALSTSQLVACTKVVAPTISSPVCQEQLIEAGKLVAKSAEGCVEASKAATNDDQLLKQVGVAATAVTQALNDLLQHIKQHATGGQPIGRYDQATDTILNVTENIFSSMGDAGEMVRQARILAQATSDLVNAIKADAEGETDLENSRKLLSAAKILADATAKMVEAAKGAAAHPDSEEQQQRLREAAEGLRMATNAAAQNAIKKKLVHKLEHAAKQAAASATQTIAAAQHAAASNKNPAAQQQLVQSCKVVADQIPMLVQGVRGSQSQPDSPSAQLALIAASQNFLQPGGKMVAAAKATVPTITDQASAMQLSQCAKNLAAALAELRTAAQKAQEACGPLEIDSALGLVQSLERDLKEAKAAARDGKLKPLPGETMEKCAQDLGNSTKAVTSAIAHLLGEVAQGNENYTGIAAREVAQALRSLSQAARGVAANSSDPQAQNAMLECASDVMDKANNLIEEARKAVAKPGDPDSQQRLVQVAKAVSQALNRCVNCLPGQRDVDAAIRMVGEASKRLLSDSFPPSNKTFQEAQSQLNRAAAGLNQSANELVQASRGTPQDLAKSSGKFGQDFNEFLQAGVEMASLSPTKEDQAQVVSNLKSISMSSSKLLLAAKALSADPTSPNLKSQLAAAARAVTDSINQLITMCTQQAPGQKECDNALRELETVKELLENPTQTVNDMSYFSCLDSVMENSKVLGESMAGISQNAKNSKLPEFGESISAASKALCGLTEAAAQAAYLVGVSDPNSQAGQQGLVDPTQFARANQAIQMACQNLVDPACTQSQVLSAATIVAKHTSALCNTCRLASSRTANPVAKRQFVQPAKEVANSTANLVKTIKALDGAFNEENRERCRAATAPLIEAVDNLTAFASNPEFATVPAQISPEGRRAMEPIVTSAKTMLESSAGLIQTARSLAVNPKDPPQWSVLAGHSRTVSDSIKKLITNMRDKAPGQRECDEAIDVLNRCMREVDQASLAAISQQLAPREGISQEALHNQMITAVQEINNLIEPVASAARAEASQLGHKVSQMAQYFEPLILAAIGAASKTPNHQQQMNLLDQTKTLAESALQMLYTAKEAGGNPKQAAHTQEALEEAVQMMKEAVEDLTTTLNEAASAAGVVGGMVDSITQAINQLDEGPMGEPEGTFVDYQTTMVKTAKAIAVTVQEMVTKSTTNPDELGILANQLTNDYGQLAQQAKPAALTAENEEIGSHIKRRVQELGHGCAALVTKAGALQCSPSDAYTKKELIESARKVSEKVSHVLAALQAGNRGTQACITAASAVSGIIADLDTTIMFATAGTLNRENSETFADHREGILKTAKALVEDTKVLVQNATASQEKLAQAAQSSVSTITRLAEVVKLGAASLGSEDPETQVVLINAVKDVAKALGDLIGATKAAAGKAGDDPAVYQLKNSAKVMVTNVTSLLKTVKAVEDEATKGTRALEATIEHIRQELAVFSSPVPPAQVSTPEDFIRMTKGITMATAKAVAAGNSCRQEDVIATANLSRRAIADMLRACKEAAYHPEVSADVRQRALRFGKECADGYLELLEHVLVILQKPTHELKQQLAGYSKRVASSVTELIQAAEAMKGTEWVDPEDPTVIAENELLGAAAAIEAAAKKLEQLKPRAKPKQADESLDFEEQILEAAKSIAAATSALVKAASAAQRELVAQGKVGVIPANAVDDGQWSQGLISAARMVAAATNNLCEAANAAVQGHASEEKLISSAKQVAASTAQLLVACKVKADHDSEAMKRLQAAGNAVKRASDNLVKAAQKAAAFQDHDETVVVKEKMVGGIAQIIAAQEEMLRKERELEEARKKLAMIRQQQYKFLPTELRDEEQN
For E1015A, the “effect of a mutation on the interaction” value was “disrupting interaction”.
